Measured values published in patent publication US20190153111A1 (Novartis, published 2019).
Several values for one entry are separate records, joined by “and”; a condition that tells them apart may be missing. Identical values can stand only once.

What was measured:
Test in all cases: cell-based or functional assay
[1] = target: T1, human CD40 on cells (human, UniProt P25942 21-277)
[2] = target: T1, human CD40 on cells; remark: listed apart in the source
[3] = target: T1, human CD40 on cells; remark: listed apart in the source
[4] = target: rhesus monkey CD40 on cells (rhesus, UniProt F6SNI1 21-278)
[5] = target: cynomolgus monkey CD40 on cells (cynomolgus, UniProt G7PG38 21-278)

T1 sequence (P25942 21-277 limits assumed): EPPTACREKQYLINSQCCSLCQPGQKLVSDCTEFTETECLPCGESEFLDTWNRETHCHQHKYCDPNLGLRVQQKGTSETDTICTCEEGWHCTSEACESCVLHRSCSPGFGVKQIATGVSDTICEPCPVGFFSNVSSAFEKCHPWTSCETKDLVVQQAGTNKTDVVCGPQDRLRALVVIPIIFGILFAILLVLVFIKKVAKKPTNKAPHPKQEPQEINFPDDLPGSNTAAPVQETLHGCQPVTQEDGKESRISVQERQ

B1: CFZ533 (antibody, human IgG1, kappa, N297A)
heavy: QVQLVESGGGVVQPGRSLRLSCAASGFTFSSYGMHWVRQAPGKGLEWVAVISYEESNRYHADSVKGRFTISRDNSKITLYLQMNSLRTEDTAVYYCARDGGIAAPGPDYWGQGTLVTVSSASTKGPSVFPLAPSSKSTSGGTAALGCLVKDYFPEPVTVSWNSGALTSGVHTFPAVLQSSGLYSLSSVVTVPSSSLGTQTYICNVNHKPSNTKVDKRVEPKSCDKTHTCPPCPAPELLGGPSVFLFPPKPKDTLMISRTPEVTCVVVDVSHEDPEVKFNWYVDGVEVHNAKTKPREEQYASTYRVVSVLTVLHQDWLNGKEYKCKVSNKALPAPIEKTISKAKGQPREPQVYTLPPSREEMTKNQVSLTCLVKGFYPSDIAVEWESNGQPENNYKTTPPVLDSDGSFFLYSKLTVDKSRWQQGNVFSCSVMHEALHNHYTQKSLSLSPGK
light: DIVMTQSPLSLTVTPGEPASISCRSSQSLLYSNGYNYLDWYLQKPGQSPQVLISLGSNRASGVPDRFSGSGSGTDFTLKISRVEAEDVGVYYCMQARQTPFTFGPGTKVDIRRTVAAPSVFIFPPSDEQLKSGTASVVCLLNNFYPREAKVQWKVDNALQSGNSQESVTEQDSKDSTYSLSSTLTLSKADYEKHKVYACEVTHQGLSSPVTKSFNRGEC
B1 was tested, and the “IC50, inhibition of rCD154-induced TNF production by primary monocyte-derived dendritic cells” value [1] was 0.04 µg/ml and 0.27 nM, the “IC50, inhibition of rCD154-induced proliferation of human PBMCs” value [1] was 0.12 nM and the “IC50, inhibition of rCD154-induced proliferation of human whole blood cultures” value [1] was 0.024 µg/ml and 0.16 nM. The “IC50, inhibition of rCD154-induced proliferation of purified human tonsillar B cells” value [1] was 0.071 µg/ml and 0.47 nM, the “IC50 (read off the curve): inhibition of rCD154-induced CD69 expression on CD20pos B cells, human whole blood” value [2] was roughly 0.1 µg/mL and the “Inhibition of rCD154-induced proliferation (IC50 PBMCs), human” value [3] was 0.017 µg/ml and 0.12 µM. The “Inhibition of rCD154-induced proliferation (IC50 PBMCs), rhesus” value [4] was 0.026 µg/ml and 0.18 µM and the “Inhibition of rCD154-induced proliferation (IC50 PBMCs), cynomolgus” value [5] was 0.01 µg/ml and 0.07 µM.
